Laboratory results as given in patent US20260098102A1 (NATIONAL UNIVERSITY CORPORATION KOBE UNIVERSITY, published 2026).
Read-outs that look alike come from different tables or passages of the source.

T1: monkey SIRPA protein (cynomolgus monkey, UniProt P78324 31-504 (human entry))
T1 construct: Expressed on 293α cells from pcDNA3.2 V5-DEST or pFLAG V5-DEST vectors; also called cynomolgus monkey SIRPA; cSIRPA
T1 chain: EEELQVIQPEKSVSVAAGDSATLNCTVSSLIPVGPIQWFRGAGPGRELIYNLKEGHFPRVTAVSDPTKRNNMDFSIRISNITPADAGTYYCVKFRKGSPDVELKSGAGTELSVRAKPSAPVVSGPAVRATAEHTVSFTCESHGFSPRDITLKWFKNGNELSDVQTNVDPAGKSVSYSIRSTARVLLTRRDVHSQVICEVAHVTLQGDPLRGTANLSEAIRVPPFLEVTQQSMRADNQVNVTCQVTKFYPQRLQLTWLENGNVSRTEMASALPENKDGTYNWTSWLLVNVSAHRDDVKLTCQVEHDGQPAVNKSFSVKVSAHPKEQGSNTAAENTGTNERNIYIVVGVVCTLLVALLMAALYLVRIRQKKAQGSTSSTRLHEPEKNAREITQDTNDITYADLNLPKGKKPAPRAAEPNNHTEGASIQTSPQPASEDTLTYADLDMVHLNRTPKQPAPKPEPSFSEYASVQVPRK

B1: human chimeric anti-SIRPA antibody cF44 (antibody, human IgG4 S228P, kappa, F234A L235A, V domains shown)
VH: EVQLVESGGGLVQPGRSLKLSCAASGFTFSNYYMAWVRQAPTKGLEWVTYITTGGGSTYFRDSVKGRFTISRDNAESTLYLQMDSLRSEDTATYYCTAANYGGSYFDYWGQGVMVTVSS
VL: DVQMTQSPSNLAASPGESVSINCKASKSISKYLAWYQQKPGKANKLLIYSGSTLQSGTPSRFSGSGSGTDFTLTIRNLEPEDFGLYYCQQHNEYPPTFGAGTKLELKR
notes: Human IgG4proFALA heavy chain, human kappa light chain; also called cF44 (IgG4pf); human chimeric antibody F44
B2: human chimeric anti-SIRPA antibody cF63 (antibody, human IgG4 S228P, lambda, F234A L235A, V domains shown)
VH: QVQLKESGPGLVQPSETLSLTCTVSGFSLASYSLSWVRQPSGKGPEWMGRMYYDGDTAYNSALKSRLSISRDTSKNQVFLKMNSLQTDDTGTYYCTRDRSMFGTDYPHWYFDFWGPGTMVTVSS
VL: QFTLTQPKSVSGALRSTITIPCERSSGDIGDSYVSWYQRHLGRPPINVIYADDQRPSEVSDRFSGSIDSSSNSASLTITNLQMDDEADYFCQSYDSKIDIFGGGTKLTVLG
notes: Human IgG4proFALA heavy chain, human lambda light chain; also called cF63 (IgG4pf); human chimeric antibody F63

Columns and labels:
monkey SIRPA protein = biological target: T1, monkey SIRPA protein; assay: cell-based ELISA on 293α cells expressing FLAG-tagged monkey SIRPA; Abs 490 normalized to FLAG tag
human SIRPA_V2 protein [1] = biological target: T2, human SIRPA_V2 protein (human, UniProt P78324 31-504); assay: blocking cell-based ELISA: peroxidase-labeled CD47-Fc (10,000 ng/mL) on 293α cells expressing SIRPA_V2; y axis = CD47-Fc signal in % of no antibody [ii]
T2 construct: Expressed on 293α cells from pcDNA3.2 V5-DEST or pFLAG V5-DEST (FLAG-tagged) vectors; also called human SIRPA Variant 2; ECD variant (full-length, amino acids 1 to 504)
Target sequence in this assay (P78324 other isoform, or with tags, fused parts or gaps limits assumed): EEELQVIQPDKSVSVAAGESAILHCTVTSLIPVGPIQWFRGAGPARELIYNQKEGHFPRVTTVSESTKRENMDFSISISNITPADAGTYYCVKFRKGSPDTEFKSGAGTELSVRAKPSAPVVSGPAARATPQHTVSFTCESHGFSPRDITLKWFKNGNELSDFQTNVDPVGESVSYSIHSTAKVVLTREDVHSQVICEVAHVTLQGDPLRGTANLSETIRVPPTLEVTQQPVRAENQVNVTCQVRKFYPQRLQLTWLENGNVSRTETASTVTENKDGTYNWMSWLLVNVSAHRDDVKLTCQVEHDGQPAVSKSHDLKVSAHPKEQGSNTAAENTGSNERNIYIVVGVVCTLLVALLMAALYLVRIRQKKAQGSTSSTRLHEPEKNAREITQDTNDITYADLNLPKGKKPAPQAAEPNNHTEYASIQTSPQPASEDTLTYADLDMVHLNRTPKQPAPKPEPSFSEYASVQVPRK

human SIRPA_V2 protein [2] = biological target: T2, human SIRPA_V2 protein; assay: cell-based ELISA on 293α cells expressing FLAG-tagged SIRPA_V2; Abs 490 normalized to FLAG tag
Method: (§1) The 293α cells [described in Example 1)-6] were prepared in a 10% FBS-containing DMEM medium to 5×10⁵ cells/mL. pFLAG V5-DEST-SIRPA_V1, pFLAG V5-DEST-SIRPA_V2, or pFLAG V5-DEST was introduced into the cells using Lipofectamine LTX (Invitrogen), followed by addition of 100 μL per well to a 96-well plate (Corning Incorporated), and cells were cultured overnight in the 10% FBS-containing DMEM medium at 37° C. under a 5% CO₂ condition. The obtained introduced cells were used for cell-based ELISA in a state that they adhered to each other. After the culture supernatant was removed, 50 μL per well of the cD13 (IgG2 and IgG4pf), cF44 (IgG1, IgG2, IgG4p, and IgG4pf), and cF63 (IgG2 and IgG4pf) antibodies prepared in Examples 3 and 4 were added to each of pFLAG V5-DEST-SIRPA_V1, pFLAG V5-DEST-SIRPA_V2, or pFLAG V5-DEST-introduced cells at final concentrations of 0 to 10,000 ng/mL, and the mixture was allowed to stand at 4° C. for one hour. Further, 50 μL per well of anti-FLAG M2 antibody (SIGMA) diluted with 5% FBS-containing PBS to a final concentration of 10,000 ng/mL was added to a well for detecting expression of each SIRPA construct, and the mixture was allowed to stand at 4° C. for one hour. The cells in the well were washed once with 5% FBS-containing PBS, followed by addition of Peroxidase AffiniPure F(ab′)₂ Fragment Goat Anti-Human IgG, Fcγ Fragment Specific (Jackson ImmunoResearch) diluted 1000-fold with 5% FBS-containing PBS, and the mixture was allowed to stand at 4° C. for one hour. The cells in the well were washed five times with 5% FBS-containing PBS, followed by addition of 100 μL per well of an OPD coloration solution [o-phenylenediamine dihydrochloride (Wako Pure Chemical Industries, Ltd.) and H₂O₂ were dissolved in an OPD solution (0.05 M trisodium citrate, 0.1 M disodium hydrogen phosphate dodecahydrate, pH 4.5) at 0.4 mg/mL and 0.6% (v/v), respectively]. A coloration reaction was performed with stirring occasionally, 100 μL per well of 1 M HCl was added to terminate the coloration reaction, and then absorbance at 490 nm was measured with a plate reader ARVO (PerkinElmer Inc.). Binding of the human chimeric anti-human SIRPA antibodies to each construct was standardized by expression of the FLAG tag.

human SIRPA_V1 protein [3] = biological target: T3, human SIRPA_V1 protein (human, UniProt P78324 31-504); assay: cell-based ELISA on 293α cells expressing FLAG-tagged SIRPA_V1; Abs 490 normalized to FLAG tag
T3 construct: Expressed on 293α cells from pcDNA3.2 V5-DEST or pFLAG V5-DEST (FLAG-tagged) vectors; also called human SIRPA Variant 1; hSIRPA V1
Method: as §1
Target sequence in this assay (P78324 31-504 limits assumed): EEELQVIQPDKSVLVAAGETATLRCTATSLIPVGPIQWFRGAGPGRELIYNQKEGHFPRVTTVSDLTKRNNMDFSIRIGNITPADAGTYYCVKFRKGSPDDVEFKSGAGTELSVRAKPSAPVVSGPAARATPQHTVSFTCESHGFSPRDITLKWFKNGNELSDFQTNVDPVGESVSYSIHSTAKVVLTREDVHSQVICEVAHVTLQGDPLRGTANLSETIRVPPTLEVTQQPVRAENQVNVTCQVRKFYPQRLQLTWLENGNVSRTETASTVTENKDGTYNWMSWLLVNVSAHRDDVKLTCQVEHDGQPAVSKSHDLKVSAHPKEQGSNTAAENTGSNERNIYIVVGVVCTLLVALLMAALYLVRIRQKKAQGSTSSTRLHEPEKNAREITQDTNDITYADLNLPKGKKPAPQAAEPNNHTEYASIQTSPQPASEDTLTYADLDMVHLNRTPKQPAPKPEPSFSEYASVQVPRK

human SIRPA_V2 protein [4] = biological target: T2, human SIRPA_V2 protein; assay: blocking cell-based ELISA: peroxidase-labeled CD47-Fc (10,000 ng/mL) on 293α cells expressing SIRPA_V2; y axis = CD47-Fc signal in % of no antibody [ii]; remark: listed apart in the source
SIRPA_V1_IgV = biological target: T4, SIRPA_V1_IgV (human, UniProt P78324 31-149); assay: SPR Biacore T200, antibody captured, SIRPA_V1_IgV as analyte, 1:1 model
T4 construct: Secreted recombinant protein from FreeStyle 293F cells
Method: The dissociation constants of the cD13, cF44, and cF63 prepared in Example 4 against the human SIRPA_V1_IgV prepared in Example 1 were determined by a capture method comprising capturing a human chimeric antibody as a ligand and measuring an antigen as an analyte, using Biacore T200 (GE Healthcare Bioscience Corp.). HBS-EP+ (GE Healthcare Bioscience Corp.) was used as a running buffer, and CM5 (GE Healthcare Bioscience Corp.) was used as a sensor chip. In an amount of 1 μg/mL human chimeric antibody was added onto a chip at a rate of 10 μL/min for 60 seconds, a serially diluted solution of human SIRPA protein as an antigen (0.5 to 8 μg/mL) was added at a flow rate of 30 μL/min for 120 seconds, and the dissociation phase continued to be monitored for 600 seconds. As a regenerant, 3 M magnesium chloride (GE Healthcare Bioscience Corp.) was added at a flow rate of 20 μL/min for 30 seconds. For data analysis, the binding rate constant (ka), dissociation rate constant (kd), and dissociation constant (KD; KD=kd/ka) were calculated using a 1:1 binding model.

human SIRPA_V1 protein [5] = biological target: T3, human SIRPA_V1 protein; assay: blocking cell-based ELISA: peroxidase-labeled CD47-Fc (10,000 ng/mL) on 293α cells expressing SIRPA_V1; y axis = CD47-Fc signal in % of no antibody [i]
Method: (§2) After the culture supernatant of the human SIRPA and monkey SIRPA expression vector-introduced 293α cells prepared in Examples 5)-1 and 5)-2, respectively, was removed, 50 μL per well of cD13 (IgG2 and IgG4pf), cF44 (four different constant regions IgG1, IgG2, IgG4p, and IgG4pf), and cF63 (IgG2 and IgG4pf) diluted with 5% FBS-containing PBS to final concentrations of 0 to 10,000 ng/mL were added to each of pcDNA3.2 V5-DEST-SIRPA_V1, pcDNA3.2 V5-DEST-monkey SIRPA, and pcDNA3.2 V5-DEST-introduced 293α cells, immediately followed by addition of 50 μL per well of peroxidase-labeled CD47-Fc prepared in 5% FBS-containing PBS at a final concentration of 10,000 ng/ml, and the mixture was allowed to stand at 4° C. for one hour. Thereafter, the SIRPA-CD47 binding inhibitory activity was evaluated in the same manner as in 1)-6-3.
Target sequence in this assay (P78324 31-504 limits assumed): as above

human SIRPA_V1 protein [6] = biological target: T3, human SIRPA_V1 protein; assay: as above; remark: listed apart in the source
Method: as §2

T4 sequence (P78324 other isoform, or with tags, fused parts or gaps limits assumed): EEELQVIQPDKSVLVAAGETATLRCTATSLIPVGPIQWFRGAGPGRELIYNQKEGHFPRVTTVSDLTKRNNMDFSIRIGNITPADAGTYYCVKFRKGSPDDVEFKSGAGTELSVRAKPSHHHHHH

Binder	EC50 (read off the curve) (monkey SIRPA protein)	IC50 (read off the curve) (human SIRPA_V2 protein [1])	EC50 (read off the curve) (human SIRPA_V2 protein [2])	EC50 (read off the curve) (human SIRPA_V1 protein [3])	IC50 (read off the curve) (human SIRPA_V2 protein [4])	Kd (SIRPA_V1_IgV)	IC50 (read off the curve) (human SIRPA_V1 protein [5])	IC50 (read off the curve) (human SIRPA_V1 protein [6])
B1	~0.08 µg/mL	~0.4 µg/mL	~0.05 µg/mL	~0.05 µg/mL	~0.4 µg/mL	1.72 nM	~0.6 µg/mL	~0.6 µg/mL
B2	~0.09 µg/mL			~0.05 µg/mL	~0.2 µg/mL	0.166 nM		~0.1 µg/mL
